# According to article PMC9010765:
# Experiments:
# [1] = target: human myeloperoxidase (human); test: SPR; BIAcore 3000; MPO immobilised on a CM5 chip through primary amino groups; apoA-I 0.5 nM to ~3000 nM flowed over at 20 uL/min in 10 mM PBS, pH 7.4; fit to 1:1 binding with a drifting baseline; apparent KD
# [2] = target: human myeloperoxidase (human) (UniProt P05164); test: SPR; BIAcore 3000; MPO immobilised on a CM5 chip through primary amino groups; lipid-poor apoA-I 0.5 nM to 3 uM flowed over at 20 ul/min in 10 mM PBS pH 7.4; 1:1 binding with drifting baseline model; apparent KD
# Chain of human myeloperoxidase (human) (P05164 165-745): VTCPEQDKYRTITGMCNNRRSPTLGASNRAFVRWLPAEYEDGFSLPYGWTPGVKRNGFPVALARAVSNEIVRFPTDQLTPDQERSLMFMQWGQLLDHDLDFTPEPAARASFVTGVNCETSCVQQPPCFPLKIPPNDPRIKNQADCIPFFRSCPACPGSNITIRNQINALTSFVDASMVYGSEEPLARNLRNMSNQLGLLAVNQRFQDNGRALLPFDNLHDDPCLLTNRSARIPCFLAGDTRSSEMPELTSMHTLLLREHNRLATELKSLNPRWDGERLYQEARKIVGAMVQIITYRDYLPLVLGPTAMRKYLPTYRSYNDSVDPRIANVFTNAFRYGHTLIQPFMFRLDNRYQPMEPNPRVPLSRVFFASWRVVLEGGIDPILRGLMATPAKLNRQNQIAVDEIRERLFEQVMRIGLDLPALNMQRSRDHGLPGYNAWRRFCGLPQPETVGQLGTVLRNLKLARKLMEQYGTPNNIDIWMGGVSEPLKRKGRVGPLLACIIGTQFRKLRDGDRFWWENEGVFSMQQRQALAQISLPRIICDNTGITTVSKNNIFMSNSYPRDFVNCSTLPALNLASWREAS
substance,measurement,setting,value
"recombinant human apolipoprotein A-I, lipid-poor (from UniProt P02647 19-267) (natural protein)",Kd,[1],75.1 nM
same,koff,[1],0.00377 s⁻¹
same,kon,[1],50200 M⁻¹ s⁻¹
same,Kd,[2],75 nM
